The values that follow come from patent US9605080B2, “Antibodies against CD73” (BRISTOL-MYERS SQUIBB COMPANY, priority 2014, dated 2017).

The target of data set [1] is T1, endogenous CD73 activity in Calu-6 cells (Homo sapiens, UniProt P21589).
T1 construct: Calu6 (CD73 endogenous expressors; human pulmonary adenocarcinoma cell line); endogenous in cells; host or cells: Calu6 (human pulmonary adenocarcinoma)
T1 sequence (P21589 27-549): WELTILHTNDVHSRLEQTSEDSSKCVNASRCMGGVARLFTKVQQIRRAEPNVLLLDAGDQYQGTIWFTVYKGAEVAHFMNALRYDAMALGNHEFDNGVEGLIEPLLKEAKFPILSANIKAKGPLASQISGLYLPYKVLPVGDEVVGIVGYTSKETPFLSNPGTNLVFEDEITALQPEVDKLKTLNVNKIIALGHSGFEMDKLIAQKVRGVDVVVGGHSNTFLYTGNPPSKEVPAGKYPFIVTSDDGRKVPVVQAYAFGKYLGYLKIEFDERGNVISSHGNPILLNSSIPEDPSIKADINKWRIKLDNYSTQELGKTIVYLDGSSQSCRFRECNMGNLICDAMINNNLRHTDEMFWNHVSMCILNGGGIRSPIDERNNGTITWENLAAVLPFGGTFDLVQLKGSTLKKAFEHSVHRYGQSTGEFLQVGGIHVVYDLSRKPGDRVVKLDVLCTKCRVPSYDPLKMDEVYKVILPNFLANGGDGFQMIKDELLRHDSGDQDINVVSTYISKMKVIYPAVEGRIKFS
As to the kind of experiment: Dual cell line HTRF cAMP assay (Calu-6 and HEK293/A2AR cells). Format: cell-based. The following applies: percentage of inhibition compared to 100 nM 11F11 set to 100%. In general terms: Time-resolved FRET reads energy transfer from a long-lived donor to a nearby acceptor.
Experimental: CD73 antibodies were serial diluted with PBS buffer containing 0.2% BSA, and plated 5 μl/well in 384 well white bottom proxiplate (PerkinElmer, Waltham, Mass.). Calu-6 cells were harvested and resuspend in PBS containing 0.2% BSA, then 5 μl of cells (300 cells/well) were added to the plate. The cells were incubated with antibodies for 10 minutes at 37° C. […] The cells were further incubated with AMP for 30 minutes at 37° C. During this time, HEK293/A2AR cells were harvested and diluted to 0.4 million/ml in PBS containing 0.2% BSA. They were added into the assay plate at 5 μl/well and continued to incubate at 37° C. for 1 hr. HRTF assays were performed using the homogenous time-resolved fluorescence (HTRF) HiRange cAMP detection kit (Cisbio, Bedford, Mass.) by adding 10 μl/well cAMP-conjugated d2 and 10μl/well europium cryptate conjugated anti-cAMP antibody in lysis buffer according to the manufacturer's instructions. Plates were incubated at room temperature for 60 minutes and Fluorescence Resonance Energy Transfer (FRET) signals (665 and 615 nM) were read using an EnVision plate reader (PerkinElmer, Waltham, Mass.). The FRET signal was calculated as the ratio of signal from the 665 nm (acceptor) and 615 nm (donor) channels and multiplied by 10,000. IC50 and Ymax were measured. […] All calculations were determined as a percentage of inhibition compared to this control, which was set to 100%.

A further data set concerns human FcγRs. As to the kind of experiment: SPR binding to human FcγRs (anti-his Fab captured FcgR-his proteins). The following applies: 1.0 μM antibody. As for the experimental part: Binding of the constructs to human FcγRs was measured via SPR. hCD64 and hCD32a-H131 binding data for IgG1.1 and IgG2 molecules were consistent with expected values for the different Fcs. IgG1.1f is the most inert Fc.
The binding of antibodies to Fc gamma receptors (FcγRs or FcgRs) was studied using biosensor technologies including Biacore surface plasmon resonance (SPR) and Fortebio Biolayer Interferometry (BLI). SPR studies were performed on a Biacore T100 instrument (GE Healthcare) at 25° C. The Fab fragment from a murine anti-6×His antibody was immobilized on a CM5 sensor chip using EDC/NHS to a density of ˜3000 RU. Various his-tagged FcgRs (7 ug/ml) were captured via the C-terminal his-tag using a contact time of 30 s at 10 ul/min, and the binding of 1.0 μM antibody was evaluated in a running buffer of 10 mM NaPO4, 130 mM NaCl, 0.05% p20 (PBS-T) pH 7.1. FcgRs used for these experiments included CD64 (FcgRI), CD32a-H131 (FcgRIIa-H131), CD32a-R131 (FcgRIIa-R131), CD32b (FcgRIIb), CD16a-V158 (FcgRIIIa-V158), CD16b-NA1 (FcgRIIIb-NA1), and CD16B-NA2 (FcgRIIIb-NA2). BLI experiments were performed on a Fortebio Octet RED instrument (Pall, Fortebio) at 25° C. in 10 mM NaPO4, 130 mM NaCl, 0.05% p20 (PBS-T) pH 7.1. […]
In general terms: Surface plasmon resonance follows binding to a sensor surface in real time, without labels.

Data set [2] deals with hCD32a-H131, hCD32a-R131, hCD32b, hCD16a-V158, hCD64. The data set is described as follows: BLI (Fortebio Octet) binding of FcgR analytes to antibodies captured from supernatants. More on the design: species or system human. As to the method:
The binding of antibodies to Fc gamma receptors (FcγRs or FcgRs) was studied using biosensor technologies including Biacore surface plasmon resonance (SPR) and Fortebio Biolayer Interferometry (BLI). SPR studies were performed on a Biacore T100 instrument (GE Healthcare) at 25° C. The Fab fragment from a murine anti-6×His antibody was immobilized on a CM5 sensor chip using EDC/NHS to a density of ˜3000 RU. Various his-tagged FcgRs (7 ug/ml) were captured via the C-terminal his-tag using a contact time of 30 s at 10 ul/min, and the binding of 1.0 μM antibody was evaluated in a running buffer of 10 mM NaPO4, 130 mM NaCl, 0.05% p20 (PBS-T) pH 7.1. FcgRs used for these experiments included CD64 (FcgRI), CD32a-H131 (FcgRIIa-H131), CD32a-R131 (FcgRIIa-R131), CD32b (FcgRIIb), CD16a-V158 (FcgRIIIa-V158), CD16b-NA1 (FcgRIIIb-NA1), and CD16B-NA2 (FcgRIIIb-NA2). BLI experiments were performed on a Fortebio Octet RED instrument (Pall, Fortebio) at 25° C. in 10 mM NaPO4, 130 mM NaCl, 0.05% p20 (PBS-T) pH 7.1. Antibodies were captured out of undiluted expression supernatants on protein A coated sensors, followed by the binding of 1 μM hCD32a-H131, hCD32a-R131, hCD32b, hCD16a-V158, or 0.1 μM hCD64 analytes.
The next set of constructs was used to engineer effector function into the otherwise effector function negative IgG2 isotype. […]
(BLI is a label-free optical method that tracks binding on a fibre tip over time.)

The nature of data set [3]: Differential scanning calorimetry, thermal stability of CD73 mAbs. Format: physicochemical. The following applies: PBS pH 7.1. As for the experimental part:
The thermal stability of CD73 mAbs were determined using a MicroCal Capillary DSC instrument (GE Healthcare). Antibodies were analyzed at a concentrations of 0.5-0.75 mg/ml in PBS pH 7.1. To stabilize the DSC instrument baseline and obtain a consistent thermal history, multiple scans of buffer alone in both the sample and reference cell were recorded prior to sample analysis. Sample scans contained mAb in the sample cell and PBS pH 7.1 in the reference cell. All scans were run from 10-110° C. at a scan rate of 60°/hr using a 5 minute pre-cycle thermostat period and no post-cycle thermostat period. Data (as shown in Table 15 below) were analyzed using MicroCal Origin Cap DSC analysis software. The appropriate buffer-buffer blank scans were subtracted from the sample-buffer data, and the transition midpoint temperature (Tm) values were determined by fitting the data to a non-2-state model. Tm1, Tm2 and Tm3 are the Tms for different domains in the antibodies.

A further data set deals with T2, CD73 on NCI-H292 cells (Homo sapiens, UniProt P21589).
T2 construct: maintenance of downregulation of endogenous CD73; endogenous in cells; host or cells: NCI-H292
T2 sequence (P21589 27-549): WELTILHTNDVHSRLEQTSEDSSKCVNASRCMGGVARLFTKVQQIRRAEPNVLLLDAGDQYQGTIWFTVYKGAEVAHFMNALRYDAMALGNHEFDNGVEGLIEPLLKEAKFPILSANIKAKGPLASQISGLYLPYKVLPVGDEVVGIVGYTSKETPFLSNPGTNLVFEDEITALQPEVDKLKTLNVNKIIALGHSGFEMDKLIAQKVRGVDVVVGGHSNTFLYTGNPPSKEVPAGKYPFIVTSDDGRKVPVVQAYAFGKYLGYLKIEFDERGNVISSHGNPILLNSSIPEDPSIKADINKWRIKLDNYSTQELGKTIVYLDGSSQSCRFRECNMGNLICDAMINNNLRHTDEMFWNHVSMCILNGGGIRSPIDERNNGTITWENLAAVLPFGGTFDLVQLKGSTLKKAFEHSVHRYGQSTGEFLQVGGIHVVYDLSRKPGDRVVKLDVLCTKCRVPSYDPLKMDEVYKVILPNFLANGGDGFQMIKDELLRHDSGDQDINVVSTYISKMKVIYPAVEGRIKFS
As to the kind of experiment: Flow cytometry based cross-blocking on NCI-H292 cells. Format: binding. As to conditions: FITC-labeled 11F11, 10 ug/mL. As for the experimental part: The antibodies were also subjected to flow cytometry based cross-blocking. The experiment was conducted as follows using one set of labeled fluorescently labeled antibody and a second set of unlabeled antibody: 100000 NCI-H292 cells were seeded per well. The plate was spun down and the cells were resuspended in 100 uL 2% FBS in PBS per well. The cells were blocked on ice for 20 min. Unlabeled antibody, as indicated, in 2% FBS in PBS was added to each well. […] 6 wells of cells were incubated without antibody, and were resuspended in 100 uL 2% FBS in PBS only (for controls). The cells were then incubated on ice for 30 min. The cells were washed twice with 2% FBS in PBS and the samples were resuspended in 140 uL 2% FBS in PBS, and analyzed on a FacsCalibur flow cytometer (Becton Dickinson).

As to `Nc1ncnc2c1ncn2[C@@H]1O[C@H](COP(=O)(O)CP(=O)(O)O)[C@@H](O)[C@H]1O` [APCP], the Ymax in data set [1] is 97%.

B1: IgG2.3G1-AY-V27: IgG2.3G1-AY with S267E (protein)
chain: ASTKGPSVFPLAPCSRSTSESTAALGCLVKDYFPEPVTVSWNSGALTSGVHTFPAVLQSSGLYSLSSVVTVPSSNFGTQTYTCNVDHKPSNTKVDKTVERKSCVECPPCPAPELLGGPSVFLFPPKPKDTLMISRTPEVTCVVVDVEHEDPEVKFNWYVDGVEVHNAKTKPREEQYNSTYRVVSVLTVLHQDWLNGKEYKCKVSNKALPAPIEKTISKAKGQPREPQVYTLPPSREEMTKNQVSLTCLVKGFYPSDIAVEWESNGQPENNYKTTPPVLDSDGSFFLYSKLTVDKSRWQQGNVFSCSVMHEALHNHYTQKSLSLSPGK
modifications: Synthetic: IgG2.3G1-AY-V27
notes: IgG2.3G1-AY with S267E
For the molecule B1, the “FcgR binding properties (SPR)” value in the data set with human FcγRs is “comparable FcgR binding properties to IgG1f and IgG1f-S267E”.

B2: IgG2.5G1-AY-V27: IgG2-B-form variant (C131S) hybrid with IgG1f, V27 (protein)
constant: ASTKGPSVFPLAPSSRSTSESTAALGCLVKDYFPEPVTVSWNSGALTSGVHTFPAVLQSSGLYSLSSVVTVPSSNFGTQTYTCNVDHKPSNTKVDKTVERKCCVECPPCPAPELLGGPSVFLFPPKPKDTLMISRTPEVTCVVVDVEHEDPEVKFNWYVDGVEVHNAKTKPREEQYNSTYRVVSVLTVLHQDWLNGKEYKCKVSNKALPAPIEKTISKAKGQPREPQVYTLPPSREEMTKNQVSLTCLVKGFYPSDIAVEWESNGQPENNYKTTPPVLDSDGSFFLYSKLTVDKSRWQQGNVFSCSVMHEALHNHYTQKSLSLSPGK
modifications: left off: another chain or arm of the molecule
For B2, the “FcgR binding properties (SPR)” value with human FcγRs is recorded as “IgG1f or modified IgG1f like effector functions”.

B3: IgG2.3: antibody with IgG2 constant region with C219S (protein)
constant: ASTKGPSVFPLAPCSRSTSESTAALGCLVKDYFPEPVTVSWNSGALTSGVHTFPAVLQSSGLYSLSSVVTVPSSNFGTQTYTCNVDHKPSNTKVDKTVERKSCVECPPCPAPPVAGPSVFLFPPKPKDTLMISRTPEVTCVVVDVSHEDPEVQFNWYVDGVEVHNAKTKPREEQFNSTFRVVSVLTVVHQDWLNGKEYKCKVSNKGLPAPIEKTISKTKGQPREPQVYTLPPSREEMTKNQVSLTCLVKGFYPSDIAVEWESNGQPENNYKTTPPMLDSDGSFFLYSKLTVDKSRWQQGNVFSCSVMHEALHNHYTQKSLSLSPGK
modifications: left off: another chain or arm of the molecule
notes: antibody with IgG2 constant region with C219S
As to B3, the “FcgR binding properties (BLI, supernatants)” value in data set [2] is reported as “appreciable binding to only CD32a-H131”.

B4: 7A11: human anti-CD73 mAb, IgG1za, VK1; VH SEQ ID NO: 88, VL SEQ ID NO: 92 (antibody, V domains shown)
VH: EVQLVESGGGLVQTGRSLRLSCAASGFTFDDYAMHWVRQAPGKGLEWVSDISWNSDIIGYADSVKGRFTISRDNAKNSLYLQMNSLRAEDTALYYCAKDIYGSGSSFFDYWGQGILVTVSS
VL: DIQMTQSPSSLSASVGDRVTITCRASQYISSWLAWYQQKPEKAPKSLIYAASSLQSGVPSRFSGSGSGTDFTLTISSLQPEDFATYYCQQYHSYPPTFGQGTRLEIK
modifications: Synthetic: 7A11 VH; Synthetic: 7A11 VK1
Turning to B4, in data set [3], the “DSC Tm1 (oC)” value is recorded as 64.8 oC, the “DSC Tm2 (oC)” value is 70.2 oC, the “DSC Tm3 (oC)” value stood at 82.8 oC and the “DSC Tonset (oC)” value turned out to be 56.0 oC. Also, in the data set with CD73 on NCI-H292 cells, the “competition with 11F11” value was “competes with 11F11”.
